Laboratory results as given in PMC5725882.

Legend:
[1] = molecular target: Np97 (N domain alone of wild-type p97) (UniProt P55072); test: ITC; VIMPx titrated into p97; iTC200, 25 C; 50 mM Tris pH 8.0, 150 mM NaCl, 2 mM MgCl2, 5% glycerol; no nucleotide added; one-site model
[2] = molecular target: VIMP of canine pancreas microsomes (dog (endogenous in canine pancreas microsomes)); test: co-IP; immunodepletion: canine pancreas microsomes solubilized in 1% deoxyBigCHAP, supernatant incubated three times with Protein A beads containing anti-VIMP antibodies; unbound fractions immunoblotted
[3] = molecular target: full-length wild-type p97 (^FLp97^wt) (UniProt P55072); test: GST pull-down; conditions: 2 mM AMP-PNP; n=3; parent: est. 1.0; read off a plot
Sequence of full-length wild-type p97 (^FLp97^wt) (P55072 whole entry): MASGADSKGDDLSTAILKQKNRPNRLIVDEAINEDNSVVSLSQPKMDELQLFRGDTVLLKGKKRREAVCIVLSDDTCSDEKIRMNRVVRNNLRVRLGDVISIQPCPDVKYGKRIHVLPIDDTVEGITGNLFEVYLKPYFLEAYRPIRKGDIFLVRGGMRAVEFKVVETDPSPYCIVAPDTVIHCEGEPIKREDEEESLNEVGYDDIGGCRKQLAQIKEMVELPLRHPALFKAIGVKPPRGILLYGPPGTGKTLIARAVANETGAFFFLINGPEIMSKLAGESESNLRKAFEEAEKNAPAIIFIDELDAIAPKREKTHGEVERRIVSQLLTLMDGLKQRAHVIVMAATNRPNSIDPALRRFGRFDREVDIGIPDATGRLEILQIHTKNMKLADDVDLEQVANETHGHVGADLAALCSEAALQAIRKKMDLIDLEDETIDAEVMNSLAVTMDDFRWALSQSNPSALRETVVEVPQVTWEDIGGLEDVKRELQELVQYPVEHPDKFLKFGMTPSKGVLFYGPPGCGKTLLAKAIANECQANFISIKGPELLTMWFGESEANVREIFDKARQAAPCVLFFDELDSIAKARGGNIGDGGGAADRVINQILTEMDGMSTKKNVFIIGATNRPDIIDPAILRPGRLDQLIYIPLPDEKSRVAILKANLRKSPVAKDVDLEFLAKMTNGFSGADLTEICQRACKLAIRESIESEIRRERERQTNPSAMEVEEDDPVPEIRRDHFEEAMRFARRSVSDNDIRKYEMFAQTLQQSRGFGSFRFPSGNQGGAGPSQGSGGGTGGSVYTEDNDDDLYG

Sequence of Np97 (N domain alone of wild-type p97) (P55072 whole entry): as above

Row | Substance | ratio to parent [3] | also measured
1 | VIMPx (VCP-interacting membrane protein, residues 49-122) (from UniProt Q9BQE4 49-122) (domain or fragment) |  | Kd [1]: 6.58 µM; stoichiometry N [1]: 1.27
2 | ER membrane-associated p97 of canine pancreas microsomes (natural protein) |  | percent of microsome-associated p97 lost by co-depletion with VIMP [2]: < 90%
3 | GST-tagged VIMP-N10 Q79A | 0.87 | 
4 | GST-tagged VIMP-N10 R86A | 0.07 | 
5 | GST-tagged VIMP-N10 V97A | 0.04 | 
6 | GST-tagged VIMP-N10 R78A | 0.24 | 
7 | GST-tagged VIMP-N10 K88A | 0.14 | 
8 | GST-tagged VIMP-N10 L93A | 0.17 | 
9 | GST-tagged VIMP-N10 K77A | 0.8 | 
10 | GST-tagged VIMP-N10 L82A | 0.14 | 
11 | GST-tagged VIMP-N10 M89A | 0.24 | 
